Assay results as given in JP2010235447A (dated 2010).

biological target: T1, CD36 (CD36発現細胞; pcDNA-CD36を一過性に導入した293T細胞) (human, UniProt P16671 2-472); experiment: flow cytometry of hybridoma supernatants on CD36-expressing cells
T1 construct: whole, on cells; also called ヒトCD36; CD36発現株
T1 sequence (P16671 2-472): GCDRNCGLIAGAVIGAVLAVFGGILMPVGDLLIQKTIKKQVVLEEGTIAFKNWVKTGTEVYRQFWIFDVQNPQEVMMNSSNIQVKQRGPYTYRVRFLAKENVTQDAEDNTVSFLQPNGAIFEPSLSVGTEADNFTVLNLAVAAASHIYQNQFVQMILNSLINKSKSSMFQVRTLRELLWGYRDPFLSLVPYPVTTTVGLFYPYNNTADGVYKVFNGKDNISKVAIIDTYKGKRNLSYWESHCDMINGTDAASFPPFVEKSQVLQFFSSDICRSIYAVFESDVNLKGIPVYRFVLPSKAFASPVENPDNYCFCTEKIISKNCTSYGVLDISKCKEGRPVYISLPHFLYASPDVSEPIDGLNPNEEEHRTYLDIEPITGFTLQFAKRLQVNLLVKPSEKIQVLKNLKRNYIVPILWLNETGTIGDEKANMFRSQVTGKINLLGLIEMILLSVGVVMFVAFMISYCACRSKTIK

Row | Binder | binding result
1 | マウス抗ヒトCD36モノクローナル抗体 クローン2-66 (antibody, mouse IgG1, V domains shown, also called クローン2−66; 抗CD36抗体) VH: QVQLQQPGAELVKPGASVRMSCKASGYTFTNYNMHWVKQTPGQGLEWIGVIYPGNGDTSYSQKFKGKATLTADKSSRTGYMQLSSLTSEDSAVYYCTRSGWDDWFFDVWGAGTSVTVSS VL: DVLMTQTPLSLPVSLGDQASISCRSSQSIVQRNGITYLEWYQQKTGQSPKLLIYKVSNRFSGVPDRFSGSGSGTDFTLKISRVEAEDLGVYYCFQGSHVPPTFGGGTKLEIK | binds
2 | マウス抗ヒトCD36モノクローナル抗体 クローン1-3 (antibody, mouse IgG2b, V domains shown, also called クローン1−3; 抗CD36抗体) VH: QAQLQQSGAELVRPGASVTLSCKASGYTFTDYEMNWVKQTPVHGLEWIGAIDPEIGGSAYNQKFKGKATLTADKSSSTAYMELRSLTSEDSAVYYCTRSKLPAWFPYWGQGTLVTVSA VL: EIKMTQSPSAMYASLGERVTITCKASQDINSYLSWFQQKPGKSPKTLIYRANRLVDGVPSRFSGSGSGQDYSLTISSLEFEDMGIYYCLQYEEFPYTFGGGTKLEIK | binds

Now from value to binder:

Row | binding result | Binder
3 | binds | マウス抗ヒトCD36モノクローナル抗体 クローン4-62 (antibody, mouse IgG2a, V domains shown, also called クローン4−62; 抗CD36抗体) VH: QIHLVQSGPELKKPGETVKISCKASGYTFTNYGMNWVMQAPGKVLKWMGWINTYTGETTYADDFKGRFAFSLETSASTAYLQINSLKYEDTASYFCARDDGYSFYYDMDYWGQGTSVTVSS VL: DVLMTQTPLSLPVSLGDQASISCRSSQSIVHTNGNTYLQWYLQKPGQSPKLLIYKVSNRFSGVPDRFSGSGSGTDFTLKISTVEAEDLGVYYCFQGSHVPWTFGGGTKLEIK
4 | binds | マウス抗ヒトCD36モノクローナル抗体 クローン1-36 (antibody, mouse IgG2b, V domains shown, also called クローン1−36; 抗CD36抗体) VH: QVQLQQSGAELVRPGASVKLSCKALNYTFTDYEMHWVKQTPVHGLEWIGGIHPGSGGTAYNQRFKGKATLTADKSSSTAYIEVSSLTSEDSAVYYCSLTTASAWFAYWGQGTLVTVSV VL: DIKMTQSPSSMYASLGERVTITCKASQDINSYLSWFQQKPGKSPKTLIYRANRLLDGVPSRFSGSGSGQDYSLTISSLEYEDMGIYYCLQYDEFPLTFGAGTKLELK
